Test results from patent US20140127139A1 (GUERBET, published 2014).
No end group written: not given here.

Key:
[1] = molecular target: T1, mouse MUC5AC glycoprotein purified from mouse stomach (mouse); test: ELISA; MUC5AC purified from mouse stomach immobilized, biotinylated peptide; apparent Kd
T1 construct: Native glycoprotein purified from tissue; Also used here as the target for the in vivo mouse stomach signal (MUC5AC in situ); also called murine (mouse) gastric MUC5AC
Method: (§1) The interaction between the peptide and MUC5AC is evaluated by means of an ELISA assay. The mucin MUC5AC (purified from pieces of human tumor on the basis of mucin extraction and purification protocols described in literature) is immobilized on a plate at the concentration of 12.5 μg/ml overnight at 4° C. The nonspecific sites are then saturated in a buffer enriched with milk, for 2 hours at 4° C. After several rinses, the peptide […] coupled to biotin is incubated at increasing concentrations (10⁻³M and 10⁻⁶M) for 2 hours at 37° C. The biotinylated peptides bound to MUC5AC are visualized using goat anti-biotin antibodies incubated for one hour at ambient temperature and then diluted in PBS at 1 μg/ml. After removal of the unbound antibodies, a second incubation for one hour at ambient temperature is carried out in the presence of peroxidase-labeled anti-goat antibodies at 0.2 μg/ml, diluted in PBS supplemented with 0.1% of Tween-20. The peroxidase coloration reaction is carried out in the presence of H₂O₂-enriched ABTS. The measurement of the OD at 405 nm makes it possible to calculate the K*d MUC5AC value.
(§2) The interaction between the peptide and MUC5AC is also evaluated by means of the previously described ELISA assay on the mucin MUC5AC purified beforehand from mouse and rat stomach.

[2] = molecular target: T2, native MUC5AC secreted by HT29-5M21 human colonic adenocarcinoma cells (human, UniProt P98088 28-5654, O-glycosylated mucin); test: cell ELISA on HT29 5M21 cells secreting MUC5AC, biotinylated peptide, OD 405 nm; apparent Kd
T2 construct: whole, on cells; A secreted mucin on the cell layer, not a membrane protein; also called MUC5AC cells; MUC5AC directly after secretion on secretory human adenocarcinoma cells
Method: The affinity of the peptide for MUC5AC is calculated from a functional cell assay which consists in measuring the binding of the peptide on a cell model secreting MUC5AC. After 21 days of culture for HT29-5M21 cells and 7 days for HCT116 cells, the cells are rinsed with PBS at 4° C., and then fixed with 1% glutaraldehyde diluted in PBS. The cells are then rinsed again 3 times with PBS at 4° C. and incubated for 2H at ambient temperature with a milk-enriched buffer and for 2H at 37° C. in a concentration range of between 10⁻³M and 10⁻⁶M of biotinylated peptides. The biotinylated peptides bound to the target are visualized using goat anti-biotin antibodies incubated for one hour at ambient temperature (diluted in PBS to 1 μg/ml). A second incubation for one hour at ambient temperature is carried out in the presence of peroxidase-labeled anti-goat antibodies at 0.2 μg/ml, diluted in PBS supplemented with 0.1% of Tween-20. The peroxidase coloration reaction is carried out in the presence of ABTS and the OD measurement is carried out at 405 nm. The cell assay has the advantage of showing affinity data, although its sensitivity can still be improved. The secretion of MUC5AC was indeed verified in the study. The results on human tissues (affinity curve for human MUC5AC also obtained) give very positive results. […]

[3] = molecular target: T3, MUC2 glycoprotein (human, UniProt Q02817 21-5289, limits assumed, O-glycosylated mucin); test: histological labelling of human colonic adenoma sections with biotinylated peptide, compared with anti-MUC2 antibody labelling
T3 construct: Present in situ in fixed, paraffin-embedded tissue sections; also called major mucin of the intestine
Method: Sections of healthy gastric and colonic mucosae and of human colorectal adenoma (5 μm thick) were fixed for 24 h with 4% paraformaldehyde and embedded in paraffin. For the labeling, the sections were first of all deparaffinized in toluene and rehydrateted in 95% alcohol. After rinsing in water, the slides are brought to boiling for 10 minutes in a citrate buffer (50 mM, pH 4). Once the temperature of the buffer has returned to 25-30° C., the slides are then rinsed with PBS and then successively incubated for 15 minutes in a 0.15% hydrogen peroxide (H₂O₂) solution and a kit for blocking the endogenous biotin for 1 h. The sections are then blocked using a milk-enriched buffer for 1 h at ambient temperature, and are then incubated at 4° C. for 18 h with the peptides at various concentrations (20 μM, 10 μM, 1 μM, 0.2 μM, 0.04 μM) or the antibodies (MUC5AC: PM8 at a 1/100 dilution and MUC2: Lum2-3 at a 1/100 dilution) diluted in PBS. The biotinylated peptides bound to the target are visualized using goat anti-biotin antibodies incubated for one hour at ambient temperature and then diluted in PBS at 1 μg/ml. A second incubation for one hour at ambient temperature is carried out in the presence of peroxidase-labeled anti-goat antibodies at 0.2 μg/ml diluted in PBS supplemented with 0.1% of Tween-20. […]

[4] = molecular target: T4, rat MUC5AC glycoprotein purified from rat stomach (rat); test: ELISA; MUC5AC purified from rat stomach immobilized, biotinylated peptide; apparent Kd
T4 construct: Native glycoprotein purified from tissue; also called murine (rat) gastric MUC5AC
Method: as §1, §2

[5] = molecular target: T5, human MUC5AC mucin purified from pieces of human tumor (human, UniProt P98088 28-5654, limits assumed, O-glycosylated mucin); test: ELISA; purified human MUC5AC immobilized, biotinylated peptide at increasing concentrations, OD 405 nm; apparent Kd
T5 construct: Native glycoprotein purified from tissue and immobilized on an ELISA plate at 12.5 ug/ml; Also used here as the target for labelling of human tissue sections (MUC5AC in situ); also called human colonic MUC5AC; purified MUC5AC
Method: as §1

B1: peptide CPSIYPLLC (SEQ ID No. 2) coupled to biotin (peptide)
peptide: CPSIYPLLC
modifications: also: biotin coupled, site not given here, cyclic, closure type not given here
notes: The chemistry of the biotin coupling is not described; also called Cyclic C60
[1]
  Kd: 549 µM
[2]
  Kd: 48 µM
[3]
  binding result: no binding
[4]
  Kd: 659 µM
[5]
  Kd: 85 µM
